Experimental findings from the RNAGym collection of RNA variant scans (doi:10.1073/pnas.2313332121) are described below.

The chains are these.
B1: TPR t1 (parent)
chain: GACCAAUCUGCCCUCAGAGCUCGAGAACAUCUUCGGAUGCAGAGGAGGCAGGCUUCGGUGGCGCGAUAGCGCCAACGUCCUCAACCUCCAAUGCAUCCCACCACAUGAUGAUGCCUGAAGAGCCUUGGUUUUUUG

The variants in this data set derive from B1. Description: polymerase ribozyme fitness, log enrichment relative to wild type (log ratio); higher = more active; in vitro selection for triplet polymerase activity. Put shortly:
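Both subunits of a heterodimeric triplet polymerase ribozyme were given their own mutant library, built by PCR and transcribed. Each library was annealed with a biotinylated primer, the partner subunit and triplets, incubated frozen at −7 °C, and its extended constructs gel-excised, captured on streptavidin beads and amplified by RT-PCR, all in one round done in triplicate. Fitness is the logarithm of genotype enrichment relative to wild-type enrichment, with replicates averaged by inverse-variance weighting. That logarithm is base 2, and Illumina-sequenced genotypes needed ≥10 input reads and ≥1 read per output.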
Take C4U G60U U92A U96C: the “polymerase ribozyme fitness (log ratio)” value was -3.48.

Consider C4U U96A, for which the “polymerase ribozyme fitness (log ratio)” value is -1.6.

For the variant C4U C12U, the “polymerase ribozyme fitness (log ratio)” value is 0.148.

On to C4A C73U, for which the “polymerase ribozyme fitness (log ratio)” value was -1.49.

With C4G G57C C64U A83G C85U, the “polymerase ribozyme fitness (log ratio)” value is -3.12.

Consider C4U G51A G61U C82G C88U G93C, for which the “polymerase ribozyme fitness (log ratio)” value was -5.15.

Turning to C4A G10C C98U G117A A121U, the “polymerase ribozyme fitness (log ratio)” value was -4.42.

Turning to C4U G117A, the “polymerase ribozyme fitness (log ratio)” value was -2.18.

In the case of C4G C72A C85G C104U, the “polymerase ribozyme fitness (log ratio)” value is -2.16.

As for C4U C8G C53U, the “polymerase ribozyme fitness (log ratio)” value stood at 0.711.

C4U A74G C89G U112G: the “polymerase ribozyme fitness (log ratio)” value is -2.61.

Consider C4U C13U G42U U55C G71A, for which the “polymerase ribozyme fitness (log ratio)” value is -2.58.

On to C4G C13A A24C G63A G71C G113U G128C, for which the “polymerase ribozyme fitness (log ratio)” value was -6.72.

C4G C13G C49A G60A: the “polymerase ribozyme fitness (log ratio)” value was -4.79.

For C4U U14C G60A A75U, the “polymerase ribozyme fitness (log ratio)” value was -3.07.

In the case of C4A A29G U30C A74C A121U, the “polymerase ribozyme fitness (log ratio)” value is -3.71.

C4U G47A C56U C70A C101U A119G G120U G127A: the “polymerase ribozyme fitness (log ratio)” value was -3.88.

In the case of C4U C13A C53U, the “polymerase ribozyme fitness (log ratio)” value was -2.94.

Consider C4U A5G U38A C70U G120A, for which the “polymerase ribozyme fitness (log ratio)” value is -1.12.

As to C4U G10A C11G G69U, the “polymerase ribozyme fitness (log ratio)” value is -0.117.

For C4G A6C C8G G48U C72G C76G A95U C124U, the “polymerase ribozyme fitness (log ratio)” value was -4.99.

Take C4A C12A C13A A18U G44A G51A U59A U87A G110C G120A U126G: the “polymerase ribozyme fitness (log ratio)” value was -7.29.

As for C4U C8A C123G, the “polymerase ribozyme fitness (log ratio)” value is 0.914.

Consider C4U G63A U116G A121U G127U, for which the “polymerase ribozyme fitness (log ratio)” value was -4.48.

Regarding C4G G52A C72U A91U A119U, the “polymerase ribozyme fitness (log ratio)” value was -4.02.

As for C4U C82U, the “polymerase ribozyme fitness (log ratio)” value was -0.905.

Regarding C4G A29G A74C A83U, the “polymerase ribozyme fitness (log ratio)” value was -4.38.

Consider C4G C20U C94U A111U, for which the “polymerase ribozyme fitness (log ratio)” value is -5.59.

Regarding C4A C49G A83G C88A C102U G120C, the “polymerase ribozyme fitness (log ratio)” value was -5.38.

For the variant C4U C49A G60C C80A C115A, the “polymerase ribozyme fitness (log ratio)” value was -5.4.

With C4G A26U A75U, the “polymerase ribozyme fitness (log ratio)” value is -4.4.

For C4A C56A G69U A90C, the “polymerase ribozyme fitness (log ratio)” value is -2.84.

With C4G G61U A66U C94A C123U U132A, the “polymerase ribozyme fitness (log ratio)” value was -1.51.

Regarding C4U A5U U59G C64U, the “polymerase ribozyme fitness (log ratio)” value was -3.75.

For the variant C4U G44U, the “polymerase ribozyme fitness (log ratio)” value was -1.74.

Consider C4U G48C G69C C101G, for which the “polymerase ribozyme fitness (log ratio)” value was -4.61.

Regarding C4A G52A C73A, the “polymerase ribozyme fitness (log ratio)” value was -2.51.

Consider C4U G63C C76A A91C A100C C115G C123A, for which the “polymerase ribozyme fitness (log ratio)” value was -4.89.

Consider C4U C49U U55G U96A, for which the “polymerase ribozyme fitness (log ratio)” value was -2.11.

In the case of C4U C12U A16G C40A G57U, the “polymerase ribozyme fitness (log ratio)” value was -2.2.

With C4G C101U, the “polymerase ribozyme fitness (log ratio)” value is -2.36.

With C4A U9G C40U G44A U55C C88A G120C, the “polymerase ribozyme fitness (log ratio)” value is -3.07.

On to C4G A50U, for which the “polymerase ribozyme fitness (log ratio)” value was -3.4.

For the variant C4A U7C C49G A50U C88G, the “polymerase ribozyme fitness (log ratio)” value was -2.88.

Regarding C4G C53A C56U C99U U130G, the “polymerase ribozyme fitness (log ratio)” value was -5.15.

For C4U G71A U87A C97U, the “polymerase ribozyme fitness (log ratio)” value was -1.86.

With C4U A100U, the “polymerase ribozyme fitness (log ratio)” value was -1.08.

C4G G71U C115U: the “polymerase ribozyme fitness (log ratio)” value was -3.28.

In the case of C4G C12G G36C G44C C97G, the “polymerase ribozyme fitness (log ratio)” value is -2.86.

As to C4G C62A C99A G113U, the “polymerase ribozyme fitness (log ratio)” value is -6.39.

As for C4G U9G U116C G128U U131C, the “polymerase ribozyme fitness (log ratio)” value is -0.342.

For the variant A5C A24G G48U G69U G110A C124U U131C, the “polymerase ribozyme fitness (log ratio)” value was -2.03.

Take C4U G47U U112C: the “polymerase ribozyme fitness (log ratio)” value is -0.0324.

On to C4U G52U G61C C124G U131G, for which the “polymerase ribozyme fitness (log ratio)” value was -0.648.

As to C4U A43U G63C G93A, the “polymerase ribozyme fitness (log ratio)” value is -3.29.

As to C4G C73U C101A U129A, the “polymerase ribozyme fitness (log ratio)” value was -1.48.

C4G A6U C72G A84C C115A: the “polymerase ribozyme fitness (log ratio)” value was -5.17.

For C4G C13U C31G C34G G63A C79U G113U, the “polymerase ribozyme fitness (log ratio)” value was -7.83.

Regarding C4G A91C G120U, the “polymerase ribozyme fitness (log ratio)” value is -1.84.

Consider C4U C40U C62A, for which the “polymerase ribozyme fitness (log ratio)” value was -2.28.

Consider C4U U7A G93C C102A, for which the “polymerase ribozyme fitness (log ratio)” value was -3.52.

C4G C11A G71A C89U A111U U112A C123A G127C: the “polymerase ribozyme fitness (log ratio)” value was -2.11.

For the variant C4U G44U C72A, the “polymerase ribozyme fitness (log ratio)” value is -0.827.

Turning to C4A G69U G110A U112A G117A, the “polymerase ribozyme fitness (log ratio)” value was -3.21.

In the case of C4U A43U G69C, the “polymerase ribozyme fitness (log ratio)” value is -4.04.

Take C4U C73G A118G: the “polymerase ribozyme fitness (log ratio)” value was -1.58.

Regarding C4G G77A C86U C97U, the “polymerase ribozyme fitness (log ratio)” value is -3.31.

For C4U U9C C82U, the “polymerase ribozyme fitness (log ratio)” value stood at 0.225.

On to C4U C114G, for which the “polymerase ribozyme fitness (log ratio)” value was -2.65.

Regarding C4U G45C, the “polymerase ribozyme fitness (log ratio)” value is -2.12.

Consider C4U C22U, for which the “polymerase ribozyme fitness (log ratio)” value was -4.42.

Regarding C4U U9G A103U C124G, the “polymerase ribozyme fitness (log ratio)” value was -3.47.

With C4U A6U A91U G113U, the “polymerase ribozyme fitness (log ratio)” value was -3.89.

In the case of C4G G63A, the “polymerase ribozyme fitness (log ratio)” value was -2.73.

In the case of C4U C15A G45C G61U C72A, the “polymerase ribozyme fitness (log ratio)” value was -2.72.

As to C4U C8A C53U G69U U96G G128C, the “polymerase ribozyme fitness (log ratio)” value was -1.46.

With C4U C79A U92C, the “polymerase ribozyme fitness (log ratio)” value was -3.5.

For the variant C4U C64A C124U, the “polymerase ribozyme fitness (log ratio)” value was -5.08.

As to C4U A41G C62A A84C C115U, the “polymerase ribozyme fitness (log ratio)” value was -4.65.

Regarding C4U G71U C97U C123A, the “polymerase ribozyme fitness (log ratio)” value worked out at 0.307.

For C4U A41U U112A G113C G122C, the “polymerase ribozyme fitness (log ratio)” value is -2.19.

Consider C4U G36C G63A G69U G120A G127A, for which the “polymerase ribozyme fitness (log ratio)” value was -0.365.

On to A5C A24G G48U G110A C124U U131C, for which the “polymerase ribozyme fitness (log ratio)” value was -4.58.
